PMC11249618, “Presenilin2 D439A Mutation Induces Dysfunction of Mitochondrial Fusion/Fission Dynamics and Abnormal Regulation of GTPase Activity” (Molecular Neurobiology, 2023)

Target: T1, His-Miro2(220–592) (UniProt Q8IXI1 220-592)
T1 construct: Mitochondrial Rho GTPase 2 (Miro2), amino acids 220–592, in pET-32a; source: E. coli BL21, purified
Test: pull-down; GST pull-down of recombinant GST-PS2 fragments with recombinant His-Miro2 fragments; bound material eluted with SDS sample buffer, SDS-PAGE and Western blot (Fig. 5C, D)
Conditions: both partners purified

T1 sequence (Q8IXI1 220-592): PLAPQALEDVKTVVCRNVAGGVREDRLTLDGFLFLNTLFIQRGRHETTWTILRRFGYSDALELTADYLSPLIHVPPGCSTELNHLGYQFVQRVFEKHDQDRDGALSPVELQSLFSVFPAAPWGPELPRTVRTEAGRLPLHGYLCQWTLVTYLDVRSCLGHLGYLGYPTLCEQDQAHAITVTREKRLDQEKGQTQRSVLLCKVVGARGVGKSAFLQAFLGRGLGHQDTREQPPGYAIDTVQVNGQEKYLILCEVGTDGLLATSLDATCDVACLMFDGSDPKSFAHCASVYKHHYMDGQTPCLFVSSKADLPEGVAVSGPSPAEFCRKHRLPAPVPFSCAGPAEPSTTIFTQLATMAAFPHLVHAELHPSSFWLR

- binding result: binds
B1: GST-PS2(271–361) (domain or fragment)
chain: not shown
notes: source: E. coli BL21, purified
